Source: patent US20180125988A1, “TARGETED XTEN CONJUGATE COMPOSITIONS AND METHODS OF MAKING SAME” (AMUNIX OPERATING INC., priority 2014, published 2018)

B1: AC404: fusion protein of FVII with AE864 (protein)
chain: AVFVTQEEAHGVLHRRRRANAFLEELRPGSLERECKEEQCSFEEAREIFKDAERTKLFWISYSDGDQCASSPCQNGGSCKDQLQSYICFCLPAFEGRNCETHKDDQLICVNENGGCEQYCSDHTGTKRSCRCHEGYSLLADGVSCTPTVEYPCGKIPILEKRNASKPQGRIVGGKVCPKGECPWQVLLLVNGAQLCGGTLINTIWVVSAAHCFDKIKNWRNLIAVLGEHDLSEHDGDEQSRRVAQVIIPSTYVPGTTNHDIALLRLHQPVVLTDHVVPLCLPERTFSERTLAFVRFSLVSGWGQLLDRGATALELMVLNVPRLMTQDCLQQSRKVGDSPNITEYMFCAGYSDGSKDSCKGDSGGPHATHYRGTWYLTGIVSWGQGCATVGHFGVYTRVSQYIEWLQKLMRSEPRPGVLLRAPFPGSPGSPAGSPTSTEEGTSESATPESGPGTSTEPSEGSAPGSPAGSPTSTEEGTSTEPSEGSAPGTSTEPSEGSAPGTSESATPESGPGSEPATSGSETPGSEPATSGSETPGSPAGSPTSTEEGTSESATPESGPGTSTEPSEGSAPGTSTEPSEGSAPGSPAGSPTSTEEGTSTEPSEGSAPGTSTEPSEGSAPGTSESATPESGPGTSTEPSEGSAPGTSESATPESGPGSEPATSGSETPGTSTEPSEGSAPGTSTEPSEGSAPGTSESATPESGPGTSESATPESGPGSPAGSPTSTEEGTSESATPESGPGSEPATSGSETPGTSESATPESGPGTSTEPSEGSAPGTSTEPSEGSAPGTSTEPSEGSAPGTSTEPSEGSAPGTSTEPSEGSAPGTSTEPSEGSAPGSPAGSPTSTEEGTSTEPSEGSAPGTSESATPESGPGSEPATSGSETPGTSESATPESGPGSEPATSGSETPGTSESATPESGPGTSTEPSEGSAPGTSESATPESGPGSPAGSPTSTEEGSPAGSPTSTEEGSPAGSPTSTEEGTSESATPESGPGTSTEPSEGSAPGTSESATPESGPGSEPATSGSETPGTSESATPESGPGSEPATSGSETPGTSESATPESGPGTSTEPSEGSAPGSPAGSPTSTEEGTSESATPESGPGSEPATSGSETPGTSESATPESGPGSPAGSPTSTEEGSPAGSPTSTEEGTSTEPSEGSAPGTSESATPESGPGTSESATPESGPGTSESATPESGPGSEPATSGSETPGSEPATSGSETPGSPAGSPTSTEEGTSTEPSEGSAPGTSTEPSEGSAPGSEPATSGSETPGTSESATPESGPGTSTEPSEGSAPGSSS
B2: AC398: fusion protein of FVII with AE288 (protein)
chain: AVFVTQEEAHGVLHRRRRANAFLEELRPGSLERECKEEQCSFEEAREIFKDAERTKLFWISYSDGDQCASSPCQNGGSCKDQLQSYICFCLPAFEGRNCETHKDDQLICVNENGGCEQYCSDHTGTKRSCRCHEGYSLLADGVSCTPTVEYPCGKIPILEKRNASKPQGRIVGGKVCPKGECPWQVLLLVNGAQLCGGTLINTIWVVSAAHCFDKIKNWRNLIAVLGEHDLSEHDGDEQSRRVAQVIIPSTYVPGTTNHDIALLRLHQPVVLTDHVVPLCLPERTFSERTLAFVRFSLVSGWGQLLDRGATALELMVLNVPRLMTQDCLQQSRKVGDSPNITEYMFCAGYSDGSKDSCKGDSGGPHATHYRGTWYLTGIVSWGQGCATVGHFGVYTRVSQYIEWLQKLMRSEPRPGVLLRAPFPGSPGTSESATPESGPGSEPATSGSETPGTSESATPESGPGSEPATSGSETPGTSESATPESGPGTSTEPSEGSAPGSPAGSPTSTEEGTSESATPESGPGSEPATSGSETPGTSESATPESGPGSPAGSPTSTEEGSPAGSPTSTEEGTSTEPSEGSAPGTSESATPESGPGTSESATPESGPGTSESATPESGPGSEPATSGSETPGSEPATSGSETPGSPAGSPTSTEEGTSTEPSEGSAPGTSTEPSEGSAPGSEPATSGSETPGTSESATPESGPGTSTEPSEGSAPGSSS
B3: XTEN_AG864: extended recombinant polypeptide of 864 amino acids, AG motif family (protein)
chain: GASPGTSSTGSPGSSPSASTGTGPGSSPSASTGTGPGTPGSGTASSSPGSSTPSGATGSPGSSPSASTGTGPGASPGTSSTGSPGTPGSGTASSSPGSSTPSGATGSPGTPGSGTASSSPGASPGTSSTGSPGASPGTSSTGSPGTPGSGTASSSPGSSTPSGATGSPGASPGTSSTGSPGTPGSGTASSSPGSSTPSGATGSPGSSPSASTGTGPGSSPSASTGTGPGSSTPSGATGSPGSSTPSGATGSPGASPGTSSTGSPGASPGTSSTGSPGASPGTSSTGSPGTPGSGTASSSPGASPGTSSTGSPGASPGTSSTGSPGASPGTSSTGSPGSSPSASTGTGPGTPGSGTASSSPGASPGTSSTGSPGASPGTSSTGSPGASPGTSSTGSPGSSTPSGATGSPGSSTPSGATGSPGASPGTSSTGSPGTPGSGTASSSPGSSTPSGATGSPGSSTPSGATGSPGSSTPSGATGSPGSSPSASTGTGPGASPGTSSTGSPGASPGTSSTGSPGTPGSGTASSSPGASPGTSSTGSPGASPGTSSTGSPGASPGTSSTGSPGASPGTSSTGSPGTPGSGTASSSPGSSTPSGATGSPGTPGSGTASSSPGSSTPSGATGSPGTPGSGTASSSPGSSTPSGATGSPGSSTPSGATGSPGSSPSASTGTGPGSSPSASTGTGPGASPGTSSTGSPGTPGSGTASSSPGSSTPSGATGSPGSSPSASTGTGPGSSPSASTGTGPGASPGTSSTGSPGASPGTSSTGSPGSSTPSGATGSPGSSPSASTGTGPGASPGTSSTGSPGSSPSASTGTGPGTPGSGTASSSPGSSTPSGATGSPGSSTPSGATGSPGASPGTSSTGSP
modifications: conjugated
notes: extended recombinant polypeptide of 864 amino acids, AG motif family
B4: XTEN_AE864: extended recombinant polypeptide of 864 amino acids, AE motif family (protein)
chain: GSPAGSPTSTEEGTSESATPESGPGTSTEPSEGSAPGSPAGSPTSTEEGTSTEPSEGSAPGTSTEPSEGSAPGTSESATPESGPGSEPATSGSETPGSEPATSGSETPGSPAGSPTSTEEGTSESATPESGPGTSTEPSEGSAPGTSTEPSEGSAPGSPAGSPTSTEEGTSTEPSEGSAPGTSTEPSEGSAPGTSESATPESGPGTSTEPSEGSAPGTSESATPESGPGSEPATSGSETPGTSTEPSEGSAPGTSTEPSEGSAPGTSESATPESGPGTSESATPESGPGSPAGSPTSTEEGTSESATPESGPGSEPATSGSETPGTSESATPESGPGTSTEPSEGSAPGTSTEPSEGSAPGTSTEPSEGSAPGTSTEPSEGSAPGTSTEPSEGSAPGTSTEPSEGSAPGSPAGSPTSTEEGTSTEPSEGSAPGTSESATPESGPGSEPATSGSETPGTSESATPESGPGSEPATSGSETPGTSESATPESGPGTSTEPSEGSAPGTSESATPESGPGSPAGSPTSTEEGSPAGSPTSTEEGSPAGSPTSTEEGTSESATPESGPGTSTEPSEGSAPGTSESATPESGPGSEPATSGSETPGTSESATPESGPGSEPATSGSETPGTSESATPESGPGTSTEPSEGSAPGSPAGSPTSTEEGTSESATPESGPGSEPATSGSETPGTSESATPESGPGSPAGSPTSTEEGSPAGSPTSTEEGTSTEPSEGSAPGTSESATPESGPGTSESATPESGPGTSESATPESGPGSEPATSGSETPGSEPATSGSETPGSPAGSPTSTEEGTSTEPSEGSAPGTSTEPSEGSAPGSEPATSGSETPGTSESATPESGPGTSTEPSEGSAP
modifications: conjugated
notes: extended recombinant polypeptide of 864 amino acids, AE motif family

Legend:
[1] = Analytical size exclusion chromatography of XTEN fusion proteins; assay type: physicochemical; details: for RH (nm), hydrodynamic radius / Apparent MW (kDa): SEC; for Apparent MW (kDa): BioRad calibration standard; for Apparent Molecular Weight Factor: ratio of apparent molecular weight to calculated molecular weight
[2] = Half-life of XTEN_AG864 in cynomolgus monkeys; assay type: in vivo
Text: The methods and materials utilized were adapted from those of Example 1, above.

[3] = target: T1, human neutrophil elastase (Homo sapiens, UniProt P08246); assay: Neutrophil elastase digestion of XTEN_AE864 (SDS-PAGE); assay type: biochemical; details: 10 μM XTEN, 37° C., 2 hours
T1 construct: purchased R&D Systems
T1 sequence (P08246 30-267): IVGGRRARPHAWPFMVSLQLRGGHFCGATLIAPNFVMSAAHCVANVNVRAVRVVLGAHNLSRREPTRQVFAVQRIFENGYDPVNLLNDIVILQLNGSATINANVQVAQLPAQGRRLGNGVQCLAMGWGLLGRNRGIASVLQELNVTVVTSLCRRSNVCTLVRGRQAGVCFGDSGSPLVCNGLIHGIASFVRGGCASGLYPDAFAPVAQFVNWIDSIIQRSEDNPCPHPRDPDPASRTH
Method: It had been speculated that neutrophil elastase, a serine protease with broad substrate specificity, may be able to degrade XTEN. […] 10 μM of purified XTEN_AE864 was incubated with 1:1000 or 1:100 molar ratio (elastase:XTEN) of human neutrophil elastase (R&D Systems) at 37° C. for 2 hours. Samples before and after digestion were analyzed on SDS-PAGE gel followed with coomassie staining (FIG. 86).

[4] = Biodegradation of XTEN in rat plasma, rat kidney homogenate and PBS buffer (SDS-PAGE); assay type: in vitro ADME; details: 0.3 mg/ml
Method: Purified XTEN_AE864 protein was incubated at a final concentration of 0.3 mg/ml in rat plasma (Bioreclamation IVT, Baltimore, Md.), rat kidney homogenate (Bioreclamation), or PBS buffer for up to 7 days at 37° C. Samples were withdrawn at time 0, 4 hours, 24 hours, and 7 days, were immediately frozen and stored at -80° C., then thawed right before analysis. XTEN was extracted from the samples by methanol precipitation. Briefly, methanol pre-chilled at −20° C. was added to the samples at a volume ratio of 2:1 and mixed by vortex. The mixture was kept at −20° C. for 30 min and then centrifuged at 14,000 rpm for 20 min at 8° C. The supernatant was subjected to centrifugal evaporation for 1-2 hours to take the sample to complete dryness, and was then resuspended in PBS buffer to the original volume before methanol extraction. The reconstituted samples were analyzed by SDS-PAGE with staining using Stains-all.

Molecule | RH (nm), hydrodynamic radius [1] [nm] | Apparent MW (kDa) [1] [kDa] | Apparent Molecular Weight Factor [1] | further results
B1 | 10.1 | 1900 | 14.7 | –
B2 | 8.2 | 650 | 8.5 | –
B3 | – | – | – | half-life [2]: exceeding 60 h
B4 | – | – | – | degradation by neutrophil elastase ([3]; 1:100 molar ratio (elastase:XTEN)): completely digested; degradation by neutrophil elastase ([3]; 1:1000 molar ratio (elastase:XTEN)): Partial degradation; degradation in PBS buffer ([4]; PBS buffer, 7 day incubation at 37° C.): only minor signs of degradation; degradation in rat kidney homogenate ([4]; rat kidney homogenate, 37° C., by the 24 hour interval): rapidly degraded; degradation in rat plasma ([4]; rat plasma, 7 day incubation at 37° C.): only minor signs of degradation
